How the values were obtained:
[1] = biological target: Human FGF1 (human) (UniProt P05230); experiment: cell-based or functional assay
[2] = biological target: Human FGF2 (human) (UniProt P09038); experiment: cell-based or functional assay
Sequence of Human FGF2 (human) (P09038 135-288 limits assumed): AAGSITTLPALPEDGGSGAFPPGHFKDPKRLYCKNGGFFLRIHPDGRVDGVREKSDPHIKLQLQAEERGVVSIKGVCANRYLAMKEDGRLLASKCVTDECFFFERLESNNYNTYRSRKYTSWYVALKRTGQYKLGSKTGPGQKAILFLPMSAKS

Sequence of Human FGF1 (human) (P05230 16-155 limits assumed): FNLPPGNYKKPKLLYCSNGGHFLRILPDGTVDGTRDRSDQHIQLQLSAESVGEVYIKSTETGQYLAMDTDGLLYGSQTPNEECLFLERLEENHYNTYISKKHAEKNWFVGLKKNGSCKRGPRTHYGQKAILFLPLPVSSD

IC50, inhibition of P-FGFR1 in NCI-H520 cells, FGF1 stimulated [1]: 50 nM
IC50, inhibition of P-FGFR1 in NCI-H520 cells, FGF2 stimulated [2]: 30 nM
Substance: FP-1039 (Fc fusion)
